The text below walks through data of article PMC9817100, “Preclinical profiles of SKB264, a novel anti-TROP2 antibody conjugated to topoisomerase inhibitor, demonstrated promising antitumor efficacy compared to IMMU-132” (Frontiers in Oncology, 2022).

Where two headings read alike, the source gives them in different places.

The target of one data set is T1, Human TROP2 protein (Homo sapiens, UniProt P09758).
T1 sequence (P09758 27-323): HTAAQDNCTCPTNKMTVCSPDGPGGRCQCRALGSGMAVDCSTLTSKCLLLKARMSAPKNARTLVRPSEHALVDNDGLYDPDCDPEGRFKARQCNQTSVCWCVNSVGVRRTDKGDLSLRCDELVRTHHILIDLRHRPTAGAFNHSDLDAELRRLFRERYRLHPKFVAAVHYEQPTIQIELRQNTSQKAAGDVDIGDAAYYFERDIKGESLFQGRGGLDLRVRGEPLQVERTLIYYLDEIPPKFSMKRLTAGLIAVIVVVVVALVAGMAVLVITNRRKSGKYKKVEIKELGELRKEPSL
Kind of data set: SPR dynamic affinity to human TROP2. As to conditions: read-out: K d (KD) to recombinant human TROP2. It is filed as binding. As to the method: Surface plasmon resonance (SPR) was an alternative method to evaluate dynamic affinity, in which human TROP2 protein was captured with goat anti-human IgG Ab immobilized onto a CM5 sensor chip (Biacore Inc., Raleigh, NC). Serial titrations of SKB264 or IMMU-132 ranging from 0.0823 to 2.22 nM and running buffer were individually injected over the surface, which was captured human TROP2 for an association phase of 120 s, followed by a 600-s dissociation time. Kinetic parameters were calculated using the BIA evaluation software with the average values of two datasets collected on separate days. Association (K a) and dissociation (K d) rate constant values were calculated by fitting analysis assuming a Langmuir binding model ([16]) and a stoichiometry of (1:1) to determine K D (equilibrium dissociation constant) values.

Data set [1] relates to HCC1806 xenograft. As to conditions: for TGI: HCC1806 xenograft (Figure 7D). As to the method: Female BALB/c nude mice (Charles River, Beijing, China) were inoculated with 2×10^6 HCC1806 cells in the right front flank. To evaluate in vivo efficacy of ADC, when the average tumor size reached about 120 mm^3, mice were randomized into 7 groups (n = 6 mice/group). The mice were treated with SKB264 or IMMU-132 at doses of 1, 3, and 10 mg/kg twice a week for six times via i.v. injection. To evaluate the PK-PD of ADC, when the average tumor size reached approximately 270 mm^3, mice were randomized into three groups (n = 5/time point). The mice received a single i.v. injection of control hIgG1, SKB264, or IMMU-132 (3 mg/kg), respectively. Blood samples (from five mice) were collected at 1 h, 4 h, 8 h, 24 h, 48 h, 96 h, 192 h, or 336 h post-dosing to detect the concentration of payload at each time point. The rate of TGI (n = 5 mice, measured at endpoint, i.e., 336 h) was determined to evaluate the antitumor efficacy of ADC. Body weight changes and mortality were also recorded to evaluate the tolerability of the testing items.

Data set [2] concerns HCC1806 xenograft. Kind of data set: PK-PD study, single dose, HCC1806 xenograft. It is filed as in vivo, BALB/c nude mice. As to conditions: HCC1806 xenograft; single i.v. 3 mg/kg; after 13 days (336 h). As to the method: Phoenix WinNonlin 8.1 was used to calculate the PK parameters in the non-compartment model, including t 1/2, T max, C max, AUC0-t, and AUC0-∞. […] The half maximal effective concentration (EC50) and half maximal inhibitory concentration (IC50) were calculated using a nonlinear regression model with sigmoidal fitting. The in vitro antitumor activities of drugs were evaluated by a two-tailed paired t-test.

The nature of data set [3]: in vitro stability in monkey plasma (payload release). It is filed as in vitro ADME, cynomolgus monkeys. As to conditions: cynomolgus monkey plasma, 50 μg/ml, 37°C, 48-h incubation.
Data set [4] in a line: in vitro stability in human plasma (payload release). The format is in vitro ADME. As to conditions: 50 μg/ml, 37°C, 48-h incubation.
Data set [5] relates to triple-negative breast cancer. Details: method as in PMID 28291390, PMID 25944802. As to conditions: drug-resistant triple-negative breast cancer (TNBC) patients; cited from earlier work.
Details of data set [6]: method as in PMID 25494821. As to conditions: cited from earlier work.
Details of data set [7]: method as in PMID 25944802. Conditions: tumor-bearing mice model; previous studies; cited from earlier work.

Regarding sacituzumab govitecan [IMMU-132], the dissociation constant Kd (as a rule, the constant that tells how readily two partners part at equilibrium) with Human TROP2 protein amounted to 0.293 nM. The TGI in the data set on HCC1806 xenograft [1] (1 mg/kg i.v. twice a week for six times) is 48.12%; with HCC1806 xenograft [1] (3 mg/kg i.v. twice a week for six times), 70.64%; in the data set on HCC1806 xenograft [1] (10 mg/kg i.v. twice a week for six times), 153.27%; with HCC1806 xenograft [2] it was 21.05%. Besides, in the data set with HCC1806 xenograft [1] (HCC1806 xenograft, all treatment groups 1, 3, 10 mg/kg), the “body weight of the experimental mice” value was “no significant change”. For the same substance, the “release rate of the payload” value in data set [3] and in data set [4] was around 100% each time. The “objective response rate (ORR)” value in data set [5] is listed as 33%. Besides, the half-life in serum in data set [6] is given as ~ 1 day. For the same substance, in data set [7], the half-life (commonly how long it takes for the measured level to halve) is recorded as 14 h.
